The source of these data is PMC2713185.

This test addresses TMR-PDZ(C338) domain of Dvl1 (mouse) (UniProt P51141). Briefly: other fluorescence titration.
Chain of UniProt P51141 (P51141 251-341): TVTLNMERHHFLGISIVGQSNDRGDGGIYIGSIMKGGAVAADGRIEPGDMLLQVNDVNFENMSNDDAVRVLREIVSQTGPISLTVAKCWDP

In general, Kd refers to the constant that tells how readily two partners part at equilibrium. The low end stands for tighter binding, the high end for weaker binding. Substance tripeptide VVV gave a Kd of 71 µM.
The value for tripeptide VWV was 2 µM.
